# Publication PMC10411877
# T1: GST-MAC3A (Arabidopsis thaliana (Col), UniProt Q94BR4 1-523)
# T1 sequence: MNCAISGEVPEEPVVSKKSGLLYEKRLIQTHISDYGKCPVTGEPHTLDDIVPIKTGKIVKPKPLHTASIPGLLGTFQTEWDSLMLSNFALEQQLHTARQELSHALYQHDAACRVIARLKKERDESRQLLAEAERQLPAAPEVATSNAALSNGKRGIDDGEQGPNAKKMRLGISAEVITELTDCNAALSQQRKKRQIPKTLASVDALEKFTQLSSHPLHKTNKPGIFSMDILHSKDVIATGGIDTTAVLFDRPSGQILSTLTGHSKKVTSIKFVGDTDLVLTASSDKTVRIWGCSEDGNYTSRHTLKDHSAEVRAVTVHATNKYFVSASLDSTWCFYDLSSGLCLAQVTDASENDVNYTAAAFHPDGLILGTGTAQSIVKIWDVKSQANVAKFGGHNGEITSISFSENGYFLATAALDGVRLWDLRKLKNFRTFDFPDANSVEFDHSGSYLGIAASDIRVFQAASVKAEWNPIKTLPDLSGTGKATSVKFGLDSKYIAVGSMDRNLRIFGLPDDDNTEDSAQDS
# B1: pYUC8biotin (dsDNA)
# DNA 1: CCTCTCCACGTGGCTTCCATTC
# DNA 2: GAATGGAAGCCACGTGGAGAGG
# B2: cold pYUC8 (dsDNA)
# DNA 1: CCTCTCCACGTGGCTTCCATTC
# DNA 2: GAATGGAAGCCACGTGGAGAGG
# B3: pIAA19biotin (dsDNA)
# DNA 1: AATGACTCCACGTGTCGATATTG
# DNA 2: CAATATCGACACGTGGAGTCATT
# B4: cold pIAA19 (dsDNA)
# DNA 1: ATCTGTTCCCTTAACCACCTTGT
# DNA 2: ACAAGGTGGTTAAGGGAACAGAT
# Experiments:
# GST-MAC3A [1] = target: T1, GST-MAC3A; assay: FLISA
# GST-MAC3A [2] = target: T1, GST-MAC3A; assay: competition FLISA
# GST-MAC3A [3] = target: T1, GST-MAC3A; assay: competition FLISA; remark: listed apart in the source
Binder,binding result (GST-MAC3A [1]),other results
B1,binds,–
B2,–,binding result (GST-MAC3A [2]): binds
B3,binds,–
B4,–,binding result (GST-MAC3A [3]): binds
